Data: patent US20090130710A1, “Enhancing vegetative protein production in transgenic plants using seed specific promoters” (priority 2005, published 2009)

T1: α-L-iduronidase (IDUA) activity (Homo sapiens, UniProt P35475)
T1 construct: arcelin-5-I (ARC5-I) signal peptide of Phaseolus vulgaris (N); made in house; host or cells: transgenic Arabidopsis thaliana T3 seeds (wild type and cgl mutant)
T1 sequence (P35475 28-653): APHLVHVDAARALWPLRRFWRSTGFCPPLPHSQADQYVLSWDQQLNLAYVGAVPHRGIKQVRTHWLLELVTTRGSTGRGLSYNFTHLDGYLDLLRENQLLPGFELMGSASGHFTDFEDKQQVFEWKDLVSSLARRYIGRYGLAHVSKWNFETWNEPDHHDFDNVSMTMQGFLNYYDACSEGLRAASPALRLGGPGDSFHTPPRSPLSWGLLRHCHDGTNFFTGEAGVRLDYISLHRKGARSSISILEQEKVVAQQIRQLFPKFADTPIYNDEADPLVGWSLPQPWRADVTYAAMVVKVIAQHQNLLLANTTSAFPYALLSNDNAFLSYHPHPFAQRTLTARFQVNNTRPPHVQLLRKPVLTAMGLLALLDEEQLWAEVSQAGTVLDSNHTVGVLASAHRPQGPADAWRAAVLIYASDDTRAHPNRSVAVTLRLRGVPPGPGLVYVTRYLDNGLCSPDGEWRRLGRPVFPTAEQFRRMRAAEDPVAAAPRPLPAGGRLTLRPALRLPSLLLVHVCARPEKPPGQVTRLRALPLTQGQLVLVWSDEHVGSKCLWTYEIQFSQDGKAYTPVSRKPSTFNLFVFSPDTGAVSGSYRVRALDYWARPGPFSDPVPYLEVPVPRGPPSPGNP

B1: IDUA derived from transgenic WT seeds: recombinant human α-L-iduronidase purified from transgenic Arabidopsis wild-type T3 seeds (protein, UniProt P35475 28-653, looked up)
Alpha-L-iduronidase: T1 sequence (P35475 28-653)
modifications: made in Arabidopsis seeds
B2: IDUA derived from transgenic cg/mutant seeds: recombinant human α-L-iduronidase purified from transgenic Arabidopsis cgl mutant seeds (N-acetylglucosaminyl transferase I deficient) (protein, UniProt P35475 28-653, looked up)
Alpha-L-iduronidase: T1 sequence (P35475 28-653)
modifications: made in Arabidopsis cgl mutant seeds

Experiments:
[1] = tested on: transgenic tobacco leaves co-expressing ABI3 and α-L-iduronidase; test: IDUA activity in leaves of tobacco co-transformants incubated on culture media with ABA or stress chemicals; type: cell-based
Method: FIG. 6. Use of ABA to enhance human α-L-iduronidase activity in plants co-expressing ABI3 and α-L-iduronidase.
FIG. 10. The effects of different treatments designed to enhance endogenous ABA levels on human α-L-iduronidase activities. Leaves of selected tobacco co-transformants (plants co-expressing constructs a and c [Arc-IDUA/ABI3] and plants co-expressing constructs a and d [Arc-IDUA-KDEL/ABI3]) were incubated for 6 days in media containing the following chemicals: (1) polyethylene glycol, PEG; (2) mM NaCl; (3) mM sucrose; (4) mM mannitol, or the leaves were kept on medium at 4 degrees celsius.
(§1) Stably transformed plants were cultured in magenta boxes at 25° C. and sub-cultured every 3 months. Healthy, fully expanded leaves from 4-week plants were used in the present study.

[2] = tested on: tobacco leaves co-expressing Arc-IDUA/ABI3 or Arc-IDUA-KDEL/ABI3; test: Western blot of α-L-iduronidase protein in tobacco co-transformant leaves; type: cell-based; settings: day 6 of incubation; Arc-IDUA/ABI3 and Arc-IDUA-KDEL/ABI3 leaves
Method: FIG. 9. Western blot showing the effects of ABA at different concentrations of the levels of human α-L-iduronidase protein at day 6 of incubation. As with the activity data (FIG. 7), leaves of selected tobacco co-transformants (plants co-expressing constructs a and c [Arc-IDUA/ABI3] and plants co-expressing constructs a and d [Arc-IDUA-KDEL/ABI3]) incubated for 6 days in increasing concentrations of S(+)-ABA, show the maximum α-L-iduronidase protein accumulation levels at 150 μM S(+)-ABA.

[3] = tested on: transgenic tobacco leaves co-expressing construct (a) (the CnABI3 gene) and construct (b) (encoding GUS); test: GUS activity in transgenic tobacco leaves co-expressing CnABI3 and Vic-GUS; type: cell-based; settings: increasing concentration of natural ABA up to 200 μM
Method: FIG. 4. Effect of natural S-(+)-ABA on recombinant bacterial β-glucuronidase (GUS) activities in transgenic tobacco leaves co-expressing construct (a) (the CnABI3 gene) and construct (b) (encoding GUS). […] There is a greater enhancement of GUS activities, with an increasing concentration of natural ABA up to 200 μM.
Transgenic tobacco plants were also generated by co-expressing the CnABI3 gene (construct a) and a gene construct containing the bacterial GUS gene coding region linked to a seed storage protein gene promoter—the vicilin gene promoter (construct b of FIG. 3) (Jiang et al., 1995).
as §1

[4] = tested on: tobacco leaves co-expressing Arc-IDUA/ABI3 or Arc-IDUA-KDEL/ABI3; test: Northern blot analysis of α-L-iduronidase mRNA in tobacco co-transformant leaves; type: cell-based; settings: 100 μM S(+)-ABA, 6 days, compared to leaves in culture without ABA
From the text: FIG. 8. ABA acts at the transcriptional level to enhance the levels of human α-L-iduronidase.

[5] = biological target: T1, α-L-iduronidase (IDUA) activity; test: IDUA specific activity after purification from transgenic Arabidopsis seeds (4MU formation); type: biochemical; settings: for Units/mg (specific activity): units are nmoles 4MU formed per minute
From the text: Table 1. Specific activities of Arabidopsis-derived α-L-iduronidase following purification of the recombinant enzyme from T3 seeds using a modified three-column procedure developed for extraction from human liver (Clements et al., 1989).

[6] = step Ab: combined elution fractions from antibody column
[7] = step BGel: combined elution fractions from Bio-Gel P100 column
[8] = step ConA: combined elution fractions from concanavalin A/Sepharose column
[9] = step Crude: clarified lysate (lipid removed)

Row | Molecule | Units/mg (specific activity) [5, 6] | Units/mg (specific activity) [5, 7] | Units/mg (specific activity) [5, 8] [Units/mg] | Units/mg (specific activity) [5, 9] [Units/mg] | further results
1 | [Cl-].[Na+] [NaCl] | – | – | – | – | effect on α-L-iduronidase activities of treatments designed to enhance endogenous ABA levels ([1]; 6 days incubation, compared to ABA control (150 μM S(+)-ABA), NaCl 240 mM or 300 mM): dramatic effectiveness in enhancing α-L-iduronidase activities
2 | CC1=CC(=O)CC(C)(C)[C@@]1(O)/C=C/C(C)=C\C(=O)O [ABA, S-(+)-ABA] | – | – | – | – | ABA concentration showing maximum α-L-iduronidase protein accumulation levels [2]: 150 µM; ABA concentration at which α-L-iduronidase activities reach a maximum ([1]; 6 days incubation in increasing concentrations, Arc-IDUA/ABI3 and Arc-IDUA-KDEL/ABI3 leaves): 150 µM; IDUA activities in leaves ([1]; ABA-treated leaves co-expressing ABI3 and IDUA-KDEL, 7 days of incubation): ≤ 16,000 pmol min^−1 mg^−1; enhancement of α-L-iduronidase activity versus transgenic control leaves (no ABA) ([1]; S(+)-ABA at 80 μM, day 7 of incubation, leaves co-expressing constructs a and d (Arc-IDUA-KDEL/ABI3)): ~58 fold; effect on recombinant GUS activities [3]: enhanced GUS activities; effect on steady-state mRNA levels encoding α-L-iduronidase [4]: enhanced steady-state mRNA levels
3 | B1 | 9,033 Units/mg | 14,700 Units/mg | 29 | 6.3 | specific activity of the enzyme ([5]; following chromatography on Bio-Gel P-100, purified from T3 seeds): 14,700 nmol 4 MU/min/mg TSP
4 | B2 | 2,700 Units/mg | 7,800 Units/mg | 8 | 2.04 | –
